How the values were obtained:
HeLa Kyoto [1] = assay: solubility in G1/S (NP-40 vs SDS abundance) (log2 ratio); higher = more soluble; conditions: cell cycle stage: G1/S
HeLa Kyoto [2] = assay: melting temperature (median over replicates), in situ; higher = more thermally stable
HeLa Kyoto [3] = assay: solubility change mitosis vs G1/S (difference of NP-40 vs SDS log2 ratios) (log2 ratio difference); higher = more soluble in mitosis
HeLa Kyoto [4] = assay: thermal stability score vs G1/S (z-score of summed log2 fold changes over temperatures); higher = more thermally stable than in G1/S
[5] = cell cycle stage: early G1 (4.5 h after nocodazole release)
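For melting temperature (median over replicates), in situ in this document: HeLa Kyoto cells synchronized by double thymidine or nocodazole block, proteins quantified by TMT10plex mass spectrometry, three independent biological replicates.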
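For solubility change mitosis vs G1/S (difference of NP-40 vs SDS log2 ratios) in this document: synchronized HeLa Kyoto cells (double thymidine block for G1/S, nocodazole release for mitosis), protein amounts in NP-40 versus SDS lysates quantified by mass spectrometry, three biological replicates.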
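For solubility in G1/S (NP-40 vs SDS abundance) in this document: HeLa Kyoto cells arrested at G1/S by double thymidine block, proteins quantified by TMT10plex mass spectrometry in mild NP-40 versus SDS extracts, three biological replicates.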
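For thermal stability score vs G1/S (z-score of summed log2 fold changes over temperatures) in this document: synchronized HeLa Kyoto cells, proteins quantified by TMT10plex mass spectrometry, three biological replicates, mitosis taken 0.5 h after nocodazole release, G1/S directly after double thymidine block.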

In the case of “MSHTEVKLKIPFGNKLLDAVCLVPNKSLTYGIILTHGASGDMNLPHLMSLASHLASHGFFCLRFTCKGLNIVHRIKAYKSVLNYLKTSGEYKLAGVFLGGRSMGSRAAASVMCHIEPDDGDDFVRGLICISYPLHHPKQQHKLRDEDLFRLKEPVLFVSGSADEMCEKNLLEKVAQKMQAPHKIHWIEKANHSMAVKGRSTNDVFKEINTQILFWIQEITEMDKKCH [TEX30]”, the “solubility in G1/S (log2)” value (HeLa Kyoto [1]) is reported as 0.199, the melting temperature (HeLa Kyoto [2]; cell cycle stage: G1/S) is reported as 48.7 °C and the melting temperature (HeLa Kyoto [2]; cell cycle stage: mitosis) is reported as 49 °C. The “solubility change mitosis (log2)” value (HeLa Kyoto [3]) was -0.146, the thermal stability score (HeLa Kyoto [4]; [5]) was 0.36 and the thermal stability score (HeLa Kyoto [4]; cell cycle stage: mitosis) was 0.539.
In the case of “MSKGTSSDTSLGRVSRAAFPSPTAAEMAEISRIQYEMEYTEGISQRMRVPEKLKVAPPNADLEQGFQEGVPNASVIMQVPERIVVAGNNEDVSFSRPADLDLIQSTPFKPLALKTPPRVLTLSERPLDFLDLERPPTTPQNEEIRAVGRLKRERSMSENAVRQNGQLVRNDSLWHRSDSAPRNKISRFQAPISAPEYTVTPSPQQARVCPPHMLPEDGANLSSARGILSLIQSSTRRAYQQILDVLDENRRPVLRGGSAAATSNPHHDNVRYGISNIDTTIEGTSDDLTVVDAASLRRQIIKLNRRLQLLEEENKERAKREMVMYSITVAFWLLNSWLWFRR [MFF]”, the “solubility in G1/S (log2)” value (HeLa Kyoto [1]) is reported as 0.532, the melting temperature (HeLa Kyoto [2]; cell cycle stage: G1/S) is reported as 51.6 °C and the melting temperature (HeLa Kyoto [2]; cell cycle stage: mitosis) is reported as 52.6 °C. For the same sequence, the “solubility change mitosis (log2)” value (HeLa Kyoto [3]) was -0.00278, the thermal stability score (HeLa Kyoto [4]; [5]) was 0.544 and the thermal stability score (HeLa Kyoto [4]; cell cycle stage: mitosis) was 1.39.
For “MSKLKSSESVRVVVRCRPMNGKEKAASYDKVVDVDVKLGQVSVKNPKGTAHEMPKTFTFDAVYDWNAKQFELYDETFRPLVDSVLQGFNGTIFAYGQTGTGKTYTMEGIRGDPEKRGVIPNSFDHIFTHISRSQNQQYLVRASYLEIYQEEIRDLLSKDQTKRLELKERPDTGVYVKDLSSFVTKSVKEIEHVMNVGNQNRSVGATNMNEHSSRSHAIFVITIECSEVGLDGENHIRVGKLNLVDLAGSERQAKTGAQGERLKEATKINLSLSALGNVISALVDGKSTHIPYRDSKLTRLLQDSLGGNAKTVMVANVGPASYNVEETLTTLRYANRAKNIKNKPRVNEDPKDALLREFQEEIARLKAQLEKRSIGRRKRREKRREGGGSGGGGEEEEEEGEEGEEEGDDKDDYWREQQEKLEIEKRAIVEDHSLVAEEKMRLLKEKEKKMEDLRREKDAAEMLGAKIKAMESKLLVGGKNIVDHTNEQQKILEQKRQEIAEQKRREREIQQQMESRDEETLELKETYSSLQQEVDIKTKKLKKLFSKLQAVKAEIHDLQEEHIKERQELEQTQNELTRELKLKHLIIENFIPLEEKSKIMNRAFFDEEEDHWKLHPITRLENQQMMKRPVSAVGYKRPLSQHARMSMMIRPEARYRAENIVLLELDMPSRTTRDYEGPAIAPKVQAALDAALQDEDEIQVDASSFESTANKKSKARPKSGRKSGSSSSSSGTPASQLYPQSRGLVPK [KIF3B]”, the “solubility in G1/S (log2)” value (HeLa Kyoto [1]) was 0.0133, the melting temperature (HeLa Kyoto [2]; cell cycle stage: G1/S) was 50.3 °C and the melting temperature (HeLa Kyoto [2]; cell cycle stage: mitosis) was 50.3 °C. The “solubility change mitosis (log2)” value (HeLa Kyoto [3]) was -0.0759, the thermal stability score (HeLa Kyoto [4]; [5]) was 0.792 and the thermal stability score (HeLa Kyoto [4]; cell cycle stage: mitosis) was 0.328.
In the case of “MSKPELKEDKMLEVHFVGDDDVLNHILDREGGAKLKKERAQLLVNPKKIIKKPEYDLEEDDQEVLKDQNYVEIMGRDVQESLKNGSATGGGNKVYSFQNRKHSEKMAKLASELAKTPQKSVSFSLKNDPEITINVPQSSKGHSASDKVQPKNNDKSEFLSTAPRSLRKRLIVPRSHSDSESEYSASNSEDDEGVAQEHEEDTNAVIFSQKIQAQNRVVSAPVGKETPSKRMKRDKTSDLVEEYFEAHSSSKVLTSDRTLQKLKRAKLDQQTLRNLLSKVSPSFSAELKQLNQQYEKLFHKWMLQLHLGFNIVLYGLGSKRDLLERFRTTMLQDSIHVVINGFFPGISVKSVLNSITEEVLDHMGTFRSILDQLDWIVNKFKEDSSLELFLLIHNLDSQMLRGEKSQQIIGQLSSLHNIYLIASIDHLNAPLMWDHAKQSLFNWLWYETTTYSPYTEETSYENSLLVKQSGSLPLSSLTHVLRSLTPNARGIFRLLIKYQLDNQDNPSYIGLSFQDFYQQCREAFLVNSDLTLRAQLTEFRDHKLIRTKKGTDGVEYLLIPVDNGTLTDFLEKEEEEA [ORC2]”, the “solubility in G1/S (log2)” value (HeLa Kyoto [1]) is reported as 0.117, the melting temperature (HeLa Kyoto [2]; cell cycle stage: G1/S) is reported as 48.1 °C and the melting temperature (HeLa Kyoto [2]; cell cycle stage: mitosis) is reported as 49.2 °C. For the same sequence, the “solubility change mitosis (log2)” value (HeLa Kyoto [3]) was 0.06, the thermal stability score (HeLa Kyoto [4]; [5]) was 1.23 and the thermal stability score (HeLa Kyoto [4]; cell cycle stage: mitosis) was 1.67.
“MSLAFKIFFPQTLRALSRKELCLFRKHHWRDVRQFSQWSETDLLHGHPLFLRRKPVLSFQGSHLRSRATYLVFLPGLHVGLCSGPCEMAEQRFCVDYAKRGTAGCKKCKEKIVKGVCRIGKVVPNPFSESGGDMKEWYHIKCMFEKLERARATTKKIEDLTELEGWEELEDNEKEQITQHIADLSSKAAGTPKKKAVVQAKLTTTGQVTSPVKGASFVTSTNPRKFSGFSAKPNNSGEAPSSPTPKRSLSSSKCDPRHKDCLLREFRKLCAMVADNPSYNTKTQIIQDFLRKGSAGDGFHGDVYLTVKLLLPGVIKTVYNLNDKQIVKLFSRIFNCNPDDMARDLEQGDVSETIRVFFEQSKSFPPAAKSLLTIQEVDEFLLRLSKLTKEDEQQQALQDIASRCTANDLKCIIRLIKHDLKMNSGAKHVLDALDPNAYEAFKASRNLQDVVERVLHNAQEVEKEPGQRRALSVQASLMTPVQPMLAEACKSVEYAMKKCPNGMFSEIKYDGERVQVHKNGDHFSYFSRSLKPVLPHKVAHFKDYIPQAFPGGHSMILDSEVLLIDNKTGKPLPFGTLGVHKKAAFQDANVCLFVFDCIYFNDVSLMDRPLCERRKFLHDNMVEIPNRIMFSEMKRVTKALDLADMITRVIQEGLEGLVLKDVKGTYEPGKRHWLKVKKDYLNEGAMADTADLVVLGAFYGQGSKGGMMSIFLMGCYDPGSQKWCTVTKCAGGHDDATLARLQNELDMVKISKDPSKIPSWLKVNKIYYPDFIVPDPKKAAVWEITGAEFSKSEAHTADGISIRFPRCTRIRDDKDWKSATNLPQLKELYQLSKEKADFTVVAGDEGSSTTGGSSEENKGPSGSAVSRKAPSKPSASTKKAEGKLSNSNSKDGNMQTAKPSAMKVGEKLATKSSPVKVGEKRKAADETLCQTKVLLDIFTGVRLYLPPSTPDFSRLRRYFVAFDGDLVQEFDMTSATHVLGSRDKNPAAQQVSPEWIWACIRKRRLVAPC [LIG3]” was tested, and the “solubility in G1/S (log2)” value (HeLa Kyoto [1]) was -0.13, the melting temperature (HeLa Kyoto [2]; cell cycle stage: G1/S) was 46.3 °C and the melting temperature (HeLa Kyoto [2]; cell cycle stage: mitosis) was 48.8 °C. The “solubility change mitosis (log2)” value (HeLa Kyoto [3]) was 0.0705, the thermal stability score (HeLa Kyoto [4]; [5]) was 0.91 and the thermal stability score (HeLa Kyoto [4]; cell cycle stage: mitosis) was 2.49.
